Test [1] concerns the target T1, HCoV-NL63 trimeric S protein (amino acids 22-1293) with T4 foldon, histidine tag and strep-tag (HCoV-NL63, UniProt Q6Q1S2 23-1293).
T1 sequence: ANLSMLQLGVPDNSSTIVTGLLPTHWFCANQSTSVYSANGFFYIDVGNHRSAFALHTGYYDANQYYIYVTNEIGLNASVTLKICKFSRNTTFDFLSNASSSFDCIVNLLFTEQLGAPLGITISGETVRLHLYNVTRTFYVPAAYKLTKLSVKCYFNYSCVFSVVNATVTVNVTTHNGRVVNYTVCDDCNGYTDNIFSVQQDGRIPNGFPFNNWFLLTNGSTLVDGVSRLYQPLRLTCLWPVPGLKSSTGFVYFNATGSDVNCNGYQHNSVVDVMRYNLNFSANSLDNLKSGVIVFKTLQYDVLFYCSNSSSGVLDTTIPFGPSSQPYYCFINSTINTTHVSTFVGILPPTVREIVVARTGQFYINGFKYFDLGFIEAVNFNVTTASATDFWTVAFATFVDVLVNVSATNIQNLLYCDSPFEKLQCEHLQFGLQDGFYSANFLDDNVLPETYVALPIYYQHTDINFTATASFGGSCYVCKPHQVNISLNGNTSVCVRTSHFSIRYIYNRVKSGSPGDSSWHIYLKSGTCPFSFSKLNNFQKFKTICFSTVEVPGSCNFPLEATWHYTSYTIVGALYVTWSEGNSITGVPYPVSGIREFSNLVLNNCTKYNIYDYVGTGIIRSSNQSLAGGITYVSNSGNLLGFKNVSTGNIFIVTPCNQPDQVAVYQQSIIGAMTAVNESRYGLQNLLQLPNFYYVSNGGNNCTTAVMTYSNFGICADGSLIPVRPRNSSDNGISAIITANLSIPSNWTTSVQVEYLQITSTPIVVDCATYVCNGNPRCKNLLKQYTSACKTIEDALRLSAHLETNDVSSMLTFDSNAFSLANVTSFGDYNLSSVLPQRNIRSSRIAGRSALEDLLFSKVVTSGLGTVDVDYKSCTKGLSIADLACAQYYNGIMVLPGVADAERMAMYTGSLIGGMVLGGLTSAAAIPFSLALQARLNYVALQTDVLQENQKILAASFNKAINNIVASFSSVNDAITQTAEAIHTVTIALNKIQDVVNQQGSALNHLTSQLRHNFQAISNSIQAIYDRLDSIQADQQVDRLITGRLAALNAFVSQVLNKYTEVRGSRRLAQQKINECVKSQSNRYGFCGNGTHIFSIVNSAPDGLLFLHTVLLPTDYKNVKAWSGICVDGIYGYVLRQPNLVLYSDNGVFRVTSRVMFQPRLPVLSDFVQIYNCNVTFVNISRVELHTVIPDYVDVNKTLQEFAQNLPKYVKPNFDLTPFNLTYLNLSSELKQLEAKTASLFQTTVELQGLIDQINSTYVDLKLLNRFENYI
Description: ELISA on coated S-trimeric antigen, anti-human IgG-HRP [Human IgG1, NT-193]. For orientation: An ELISA detects its analyte on a solid surface through an enzyme-linked reagent.

The target of test [2] is T2, HCoV-229E trimeric S protein (amino acids 12-1109) with T4 foldon, histidine tag and strep-tag (HCoV-229E, UniProt P15423 12-1112).
T2 chain: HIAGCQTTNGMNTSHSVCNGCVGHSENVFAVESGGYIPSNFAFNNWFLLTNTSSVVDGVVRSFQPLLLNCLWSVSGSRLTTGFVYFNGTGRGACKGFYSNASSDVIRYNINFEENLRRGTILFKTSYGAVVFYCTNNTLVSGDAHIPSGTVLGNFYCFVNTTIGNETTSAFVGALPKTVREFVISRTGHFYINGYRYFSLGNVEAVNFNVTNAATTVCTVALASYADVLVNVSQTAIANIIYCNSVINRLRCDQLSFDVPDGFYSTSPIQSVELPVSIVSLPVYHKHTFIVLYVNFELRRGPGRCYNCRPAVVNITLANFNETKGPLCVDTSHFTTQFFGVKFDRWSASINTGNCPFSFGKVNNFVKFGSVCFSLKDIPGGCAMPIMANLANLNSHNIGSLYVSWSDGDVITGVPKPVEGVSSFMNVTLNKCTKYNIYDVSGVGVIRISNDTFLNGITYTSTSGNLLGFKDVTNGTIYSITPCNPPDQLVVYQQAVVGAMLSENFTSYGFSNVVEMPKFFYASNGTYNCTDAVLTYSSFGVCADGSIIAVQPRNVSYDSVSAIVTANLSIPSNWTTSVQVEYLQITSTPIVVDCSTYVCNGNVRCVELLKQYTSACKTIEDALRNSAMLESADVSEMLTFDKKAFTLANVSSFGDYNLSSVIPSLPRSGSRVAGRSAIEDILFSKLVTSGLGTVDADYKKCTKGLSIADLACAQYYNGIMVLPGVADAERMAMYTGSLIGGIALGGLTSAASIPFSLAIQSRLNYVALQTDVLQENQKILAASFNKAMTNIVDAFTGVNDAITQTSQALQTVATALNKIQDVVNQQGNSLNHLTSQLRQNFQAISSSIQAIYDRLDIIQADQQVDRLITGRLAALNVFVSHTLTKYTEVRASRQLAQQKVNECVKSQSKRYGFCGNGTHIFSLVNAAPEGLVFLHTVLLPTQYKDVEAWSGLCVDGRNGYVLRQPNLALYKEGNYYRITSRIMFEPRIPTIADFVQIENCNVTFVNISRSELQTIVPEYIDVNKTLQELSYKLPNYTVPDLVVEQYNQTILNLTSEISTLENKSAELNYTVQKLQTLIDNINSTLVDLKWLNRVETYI
Description: ELISA on coated S-trimeric antigen, anti-human IgG-HRP [Human IgG3, NT-193].

The target in test [3] is T1, HCoV-NL63 trimeric S protein (amino …). The test is described as above.

The text below walks through data of patent publication US20240287161A1 (NATIONAL UNIVERSITY CORPORATION TOTTORI UNIVERSITY, published 2024).

B1: NT-193 (recombinant human IgG1/kappa antibody) (antibody, V domains shown)
VH: EVQLQQWGAGLLKPSETLSLTCAVYGGSFSGYYWSWIRQPPGKGLEWIGEINHSGSTNYNPSLKSRVTISVDTSKNQFSLKLSSVTAADTAVYYCARGWDLDYYYGMDVWGQGTTVTVSS
VL: DIRMTQSPSAMSASVGDRVTVTCRASQGIGNYLAWFQLKPGKVPKRLIYAASSLQSGVPARFSGGGSGTEFTLTISSLQPEDFATYYCLQHGFLPWTFGQGTKLEIK
Consider B1, for which the binding result in test [1] is “no binding (tested: 1000 ng/ml)”.

B2: NT-193, human IgG3 subclass (antibody, V domains shown)
VH: EVQLQQWGAGLLKPSETLSLTCAVYGGSFSGYYWSWIRQPPGKGLEWIGEINHSGSTNYNPSLKSRVTISVDTSKNQFSLKLSSVTAADTAVYYCARGWDLDYYYGMDVWGQGTTVTVSS
VL: DIRMTQSPSAMSASVGDRVTVTCRASQGIGNYLAWFQLKPGKVPKRLIYAASSLQSGVPARFSGGGSGTEFTLTISSLQPEDFATYYCLQHGFLPWTFGQGTKLEIK
Regarding B2, the binding result in test [2] and in test [3] was “no binding (tested: 1000 ng/ml)” throughout.
